Data from patent US20250376533A1 (FUTUREGEN BIOPHARMACEUTICAL BEIJING, published 2025).
Where a chain is given by its changes, count along the chain named. In names and notes the source's numbering stands. Read-outs that look alike come from different tables or passages of the source. Each block holds one binder with its values, some of them ahead of it.

Columns and labels:
[1] = biological target: T1, cynomolgus PD-L1 antigen (ACROBiosystems) (cynomolgus, UniProt G7PSE7 19-238); experiment: ELISA, coated antigen
T1 construct: Bought antigen coated on ELISA plates; construct not described
T1 sequence (G7PSE7 entry or part of it): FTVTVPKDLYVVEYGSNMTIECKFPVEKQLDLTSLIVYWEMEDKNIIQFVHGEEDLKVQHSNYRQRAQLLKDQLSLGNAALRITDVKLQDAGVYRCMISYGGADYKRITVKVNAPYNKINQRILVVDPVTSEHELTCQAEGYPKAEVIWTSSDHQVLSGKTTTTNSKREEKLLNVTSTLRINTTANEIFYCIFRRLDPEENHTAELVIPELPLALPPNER
Protocol: (§1) The binding ability of monoclonal antibody to human PD-L1, as well as the species specificity, was detected using an enzyme-linked immunosorbent assay (ELISA). The specific method is as follows: human PD-L1, cynomolgus PD-L1, rat PD-L1, and mouse PD-L1 antigens (all purchased from ACROBiosystems) were coated with 1 μg/mL carbonate buffer (pH=9.6) in an ELISA plate at 100 μL per well, followed by incubation at 4° C. overnight. The wells were washed 5 times with PBST. 300 μL/well of PBST containing 1% BSA was added to block the wells, and the plate was incubated at room temperature for 1 hour. The wells were washed 5 times with PBST. […] The wells were washed 5 times with PBST. […] The wells were washed 5 times with PBST. Colorimetric substrate TMB was added at 100 μL per well and allowed to develop color at room temperature for 10 minutes, followed by the addition of 1 M sulfuric acid to terminate the reaction. The OD_{450 nm} was read on a microplate reader to analyze the results, and the EC₅₀ was calculated using a 4-parameter fit binding curve.
(§2) These monoclonal antibodies are not able to bind to rat PD-L1 or mouse PD-L1.

[2] = biological target: T2, mouse PD-L1 antigen (ACROBiosystems) (mouse, UniProt Q9EP73 19-239); experiment: ELISA, coated antigen
T2 construct: Bought antigen coated on ELISA plates; construct not described
T2 sequence (Q9EP73 19-239 limits assumed): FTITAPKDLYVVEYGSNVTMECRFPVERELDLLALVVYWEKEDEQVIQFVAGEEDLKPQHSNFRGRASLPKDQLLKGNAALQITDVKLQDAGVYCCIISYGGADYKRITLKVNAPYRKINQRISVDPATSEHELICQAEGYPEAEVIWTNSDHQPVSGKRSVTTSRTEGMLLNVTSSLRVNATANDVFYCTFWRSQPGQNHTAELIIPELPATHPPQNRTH
Protocol: as §1, §2

[3] = biological target: T3, rat PD-L1 antigen (ACROBiosystems) (rat, UniProt D4AE25 19-239); experiment: ELISA, coated antigen
T3 construct: Bought antigen coated on ELISA plates; construct not described
T3 sequence (D4AE25 entry or part of it limits assumed): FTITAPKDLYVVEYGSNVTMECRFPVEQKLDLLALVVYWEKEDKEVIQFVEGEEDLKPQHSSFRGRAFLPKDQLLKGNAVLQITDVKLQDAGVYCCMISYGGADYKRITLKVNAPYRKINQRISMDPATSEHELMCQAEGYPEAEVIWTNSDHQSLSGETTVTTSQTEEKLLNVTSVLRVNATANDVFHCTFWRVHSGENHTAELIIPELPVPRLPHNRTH
Protocol: as §1, §2

[4] = biological target: T4, human PD-L1 antigen (ACROBiosystems) (human, UniProt Q9NZQ7 19-238); experiment: ELISA, coated antigen
T4 construct: Bought antigen coated on ELISA plates
T4 sequence (Q9NZQ7 19-238 limits assumed): as the sequence (G7PSE7 entry or part of it) above, with T33A, S34A, N62S, Q68R, R82Q, L173F, A185T, I192T, L215H counted along it
Protocol: as §1, §2

[5] = biological target: T4, human PD-L1 antigen (ACROBiosystems); experiment: BLI (Gator), antibody captured on PA probe, human PD-L1 in solution
Protocol: The interaction between monoclonal antibodies and antigens was detected using Gator, a label-free biomolecular interaction analyzer based on the principle of biolayer interferometry (BLI). The specific method is as follows: monoclonal antibody was diluted to 50 nM and added to a probe plate using a PA probe, allowing the monoclonal antibody to be captured by the PA probe. Human PD-L1, an antigen serially diluted starting from 200 nM, was then added for interaction with the […] captured by the PA probe. The interaction was analyzed by detecting the signal change of the reflected interference spectrum on the surface of the probe, and the binding kinetic constants of the antibody were finally calculated.

[6] = biological target: T5, human CD40 antigen (ACROBiosystems) (human, UniProt P25942 21-193); experiment: bridging ELISA: coated human CD40, serially diluted bispecific antibody, detection with biotin-labeled human PD-L1 and streptavidin-HRP, OD450
T5 construct: Bought antigen coated on ELISA plates; construct not described
T5 sequence (P25942 21-193 limits assumed): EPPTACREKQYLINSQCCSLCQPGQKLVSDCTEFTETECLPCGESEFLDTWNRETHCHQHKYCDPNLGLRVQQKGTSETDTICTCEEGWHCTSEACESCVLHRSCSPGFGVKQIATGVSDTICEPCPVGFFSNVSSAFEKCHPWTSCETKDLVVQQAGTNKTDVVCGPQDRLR
Protocol: Antigen human CD40 (purchased from ACROBiosystems) was coated with 1 μg/mL carbonate buffer (pH=9.6) in an ELISA plate at 100 μL per well, followed by incubation at 4° C. overnight. The wells were washed 5 times with PBST. 300 μL/well of PBST containing 1% BSA was added to block the wells, and the plate was incubated at room temperature for 1 hour. The wells were washed 5 times with PBST. […] The wells were washed 5 times with PBST. Biotin-labeled human PD-L1 (FutureGen Biopharmaceutical) diluted with PBST containing 1% BSA was added at 100 μL per well, and the plate was incubated at room temperature for 1 hour. The wells were washed 5 times with PBST. Streptavidin-HRP (BioLegend, Cat. No. 405210) diluted with PBST containing 1% BSA was added at 100 μL per well, and the plate was incubated at room temperature for 30 minutes. Colorimetric substrate TMB was added at 100 μL per well and allowed to develop color at room temperature for 10 minutes, followed by the addition of 1 M sulfuric acid to terminate the reaction. The OD_[…] was read on a microplate reader to analyze the results, and the EC₅₀ was calculated using a 4-parameter fit binding curve.

[7] = biological target: T6, CD40 on HEK-Blue CD40L cells (InvivoGen) (UniProt P25942 21-277, limits assumed); experiment: cell-based or functional assay
T6 sequence (P25942 21-277 limits assumed): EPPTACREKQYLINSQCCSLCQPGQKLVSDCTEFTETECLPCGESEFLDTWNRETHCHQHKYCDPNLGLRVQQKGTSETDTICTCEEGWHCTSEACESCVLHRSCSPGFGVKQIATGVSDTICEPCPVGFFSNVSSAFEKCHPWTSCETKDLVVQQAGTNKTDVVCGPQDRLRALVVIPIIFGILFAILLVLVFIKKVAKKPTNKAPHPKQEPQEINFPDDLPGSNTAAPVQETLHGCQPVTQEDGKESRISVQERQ

[8] = biological target: T1, cynomolgus PD-L1 antigen …; experiment: ELISA, coated antigen; remark: listed apart in the source
Protocol: (§3) The binding ability of bispecific antibody to human PD-L1 and human CD40, as well as the species specificity, was detected using an enzyme-linked immunosorbent assay (ELISA). The specific method is as follows: human PD-L1, cynomolgus PD-L1, rat PD-L1, mouse PD-L1, human CD40, cynomolgus CD40, rat CD40, and mouse CD40 antigens (all purchased from ACROBiosystems) were coated with 1 μg/mL carbonate buffer (pH=9.6) in an ELISA plate at 100 μL per well, followed by incubation at 4° C. overnight. The wells were washed 5 times with PBST. 300 μL/well of PBST containing 1% BSA was added to block the wells, and the plate was incubated at room temperature for 1 hour. The wells were washed 5 times with PBST. […] The wells were washed 5 times with PBST. […] The wells were washed 5 times with PBST. Colorimetric substrate TMB was added at 100 μL per well and allowed to develop color at room temperature for 10 minutes, followed by the addition of 1 M sulfuric acid to terminate the reaction. The OD_{450 nm} was read on a microplate reader to analyze the results, and the EC₅₀ was calculated using a 4-parameter fit binding curve.
(§4) These bispecific antibodies are not able to bind to rat PD-L1 and CD40 or mouse PD-L1 and CD40.

[9] = biological target: T7, cynomolgus CD40 antigen (ACROBiosystems) (cynomolgus, UniProt G7PG38 21-193); experiment: ELISA, coated antigen
T7 construct: Bought antigen coated on ELISA plates; construct not described
Protocol: as §3, §4

[10] = biological target: T2, mouse PD-L1 antigen (ACROBiosystems); experiment: ELISA, coated antigen; remark: listed apart in the source
Protocol: as §3, §4

[11] = biological target: T8, mouse CD40 antigen (ACROBiosystems) (mouse, UniProt P27512 24-193, limits assumed); experiment: ELISA, coated antigen
T8 construct: Bought antigen coated on ELISA plates; construct not described
T8 sequence (P27512 24-193 limits assumed): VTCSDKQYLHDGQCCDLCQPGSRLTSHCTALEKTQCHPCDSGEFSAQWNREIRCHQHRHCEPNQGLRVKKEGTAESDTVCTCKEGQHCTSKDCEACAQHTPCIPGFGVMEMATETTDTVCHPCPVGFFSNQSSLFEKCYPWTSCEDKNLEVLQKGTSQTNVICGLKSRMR
Protocol: as §3, §4

[12] = biological target: T9, rat CD40 antigen (ACROBiosystems) (rat, UniProt A6JXD6 20-193); experiment: ELISA, coated antigen
T9 construct: Bought antigen coated on ELISA plates; construct not described
T9 sequence: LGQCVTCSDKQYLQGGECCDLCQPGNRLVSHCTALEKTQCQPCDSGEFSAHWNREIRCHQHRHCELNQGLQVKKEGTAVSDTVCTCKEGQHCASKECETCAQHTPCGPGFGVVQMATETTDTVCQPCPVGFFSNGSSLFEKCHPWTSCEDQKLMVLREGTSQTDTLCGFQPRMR
Protocol: as §3, §4

[13] = biological target: T5, human CD40 antigen (ACROBiosystems); experiment: ELISA, coated antigen
Protocol: as §3, §4

[14] = biological target: T3, rat PD-L1 antigen (ACROBiosystems); experiment: ELISA, coated antigen; remark: listed apart in the source
Protocol: as §3, §4

[15] = biological target: T4, human PD-L1 antigen (ACROBiosystems); experiment: ELISA, coated antigen; remark: listed apart in the source
Protocol: as §3, §4

[16] = biological target: T6, CD40 on HEK-Blue CD40L cells (InvivoGen); experiment: flow cytometry, competition with 10 nM Biotin-CD40L on HEK-Blue CD40L cells
Protocol: The blocking effect of bispecific antibodies on CD40/CD40L binding was tested using HEK-Blue CD40L cells that highly express CD40. The specific method is as follows: HEK-Blue CD40L cells were collected and resuspended in pre-cooled PBS containing 2% FBS at a density of 1E7 cells/mL, and then added to a 96-well plate at 50 μL per well, i.e., 5E5 cells/well. Biotin-CD40L (FutureGen Biopharmaceutical) and serially diluted bispecific antibody were then added at 50 μL per well, with a final concentration of Biotin-CD40L of 10 nM, and the plate was incubated at 4° C. for 1 hour. The wells were washed twice with pre-cooled PBS. Streptavidin-PE (BioLegend, Cat. No. 405203) diluted in pre-cooled PBS containing 2% FBS was added, and the plate was incubated at 4° C. for 30 minutes. The wells were washed twice with pre-cooled PBS. The cells were then resuspended in pre-cooled PBS containing 2% FBS and assayed by flow cytometry.

- EC50 [1]: 0.013 nM
- binding result [2]: no binding
- binding result [3]: no binding
- EC50 [4]: 0.013 nM
- Kd [5]: 4.41 nM
- koff [5]: 0.00451 s⁻¹
- kon [5]: 1.02e+06 M⁻¹ s⁻¹
B1: anti-PD-L1 monoclonal antibody 1102 (antibody, human IgG1, V domains shown)
VH: EVQLVESGGGLVQPGGSLRLSCAASGFTFDYYTQCWFRQAPGKEREWVSCISSSEGSTYYADSVKGRFTISRDNAKNTVYLQMNSLRAEDTAVYYCAARKGGPLTIENFFDYWGQGTQVTVSS

- EC50 [1]: 0.018 nM
- binding result [2]: no binding
- binding result [3]: no binding
- EC50 [4]: 0.014 nM
- Kd [5]: 4.38 nM
- koff [5]: 0.00293 s⁻¹
- kon [5]: 670000 M⁻¹ s⁻¹
B2: anti-PD-L1 monoclonal antibody 1541 (antibody, human IgG1, V domains shown)
VH: B1 VH with A75S, R87K, A88T

- EC50 [1]: 0.018 nM
- binding result [2]: no binding
- binding result [3]: no binding
- EC50 [4]: 0.02 nM
- Kd [5]: 8.3 nM
- koff [5]: 0.00913 s⁻¹
- kon [5]: 1.1e+06 M⁻¹ s⁻¹
B3: anti-PD-L1 monoclonal antibody 1031 (antibody, human IgG1, V domains shown)
VH: B1 VH with D30E, Q34K, S53T

- EC50 [1]: 0.013 nM
- binding result [2]: no binding
- binding result [3]: no binding
- EC50 [4]: 0.012 nM
- Kd [5]: 4.37 nM
- koff [5]: 0.00422 s⁻¹
- kon [5]: 967000 M⁻¹ s⁻¹
B4: anti-PD-L1 monoclonal antibody 1029 (antibody, human IgG1, V domains shown)
VH: B1 VH with F29L, T33S, Q34K, S52G, E55D, K100N

- EC50 [6]: 0.039 nM
- CD40 agonistic activity (A)/(B) Ratio, EC50 without over with CHO/PD-L1 [7]: 25.3
- CD40 agonistic activity EC50 (nM) with CHO/PD-L1 (B), SEAP reporter [7]: 0.027 nM
- CD40 agonistic activity EC50 (nM) without CHO/PD-L1 (A), SEAP reporter [7]: 0.686 nM
- EC50 [8]: 0.023 nM
- EC50 [9]: 0.006 nM
- binding result [10]: no binding
- binding result [11]: no binding
- binding result [12]: no binding
- EC50 [13]: 0.025 nM
- binding result [14]: no binding
- EC50 [15]: 0.039 nM
- IC50 [16]: 8.63 nM
B5: anti-PD-L1/CD40 bispecific antibody 1655 (bispecific antibody, human IgG2, kappa)
light: DIQMTQSPSSLSASVGDRVTITCRASQTISSYLNWYQQKPGKAPKLLIYYTSTLQSGVPSRFSGSGSGTDYTLTISSLQPEDFATYYCQQGNAYPWTFGGGTKVEIKRTVAAPSVFIFPPSDEQLKSGTASVVCLLNNFYPREAKVQWKVDNALQSGNSQESVTEQDSKDSTYSLSSTLTLSKADYEKHKVYACEVTHQGLSSPVTKSFNRGEC
heavy: EVQLVESGGGLVQPGGSLRLSCAASGFTFSNYYMSWVRQAPGKGLEWVGFIRNKANAYTTEYAASVKGRFTISRDNSKSTLYLQMNSLRAEDTAVYYCARYGGLKIGWYFDLWGQGTLVTVSSASTKGPSVFPLAPCSRSTSESTAALGCLVKDYFPEPVTVSWNSGALTSGVHTFPAVLQSSGLYSLSSVVTVPSSNFGTQTYTCNVDHKPSNTKVDKTVERKCCVECPPCPAPPVAGPSVFLFPPKPKDTLMISRTPEVTCVVVDVSHEDPEVQFNWYVDGVEVHNAKTKPREEQFNSTFRVVSVLTVVHQDWLNGKEYKCKVSNKGLPAPIEKTISKTKGQPREPQVYTLPPSREEMTKNQVSLTCLVKGFYPSDIAVEWESNGQPENNYKTTPPMLDSDGSFFLYSKLTVDKSRWQQGNVFSCSVMHEALHNHYTQKSLSLSPGGGGGSGGGGSGGGGSGEVQLVESGGGLVQPGGSLRLSCAASGFTFDYYTQCWFRQAPGKEREWVSCISSSEGSTYYADSVKGRFTISRDNSKNTVYLQMNSLKTEDTAVYYCAARKGGPLTIENFFDYWGQGTQVTVSS
notes: First polypeptide chain = anti-CD40 light chain; second polypeptide chain = anti-CD40 heavy chain with the 1541 VHH joined to its C-terminus by a G4S linker
